Results taken from the supplement of paper PMC5998384.

Legend:
HeLa Kyoto [1] = test: solubility in G1/S (NP-40 vs SDS abundance) (log2 ratio); higher = more soluble; conditions: cell cycle stage: G1/S
HeLa Kyoto [2] = test: melting temperature (median over replicates), in situ; higher = more thermally stable
HeLa Kyoto [3] = test: solubility change mitosis vs G1/S (difference of NP-40 vs SDS log2 ratios) (log2 ratio difference); higher = more soluble in mitosis
HeLa Kyoto [4] = test: thermal stability score vs G1/S (z-score of summed log2 fold changes over temperatures); higher = more thermally stable than in G1/S
[5] = cell cycle stage: early G1 (4.5 h after nocodazole release)
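Wherever melting temperature (median over replicates), in situ is given: HeLa Kyoto cells synchronized by double thymidine or nocodazole block, proteins quantified by TMT10plex mass spectrometry, three independent biological replicates.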
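Wherever solubility change mitosis vs G1/S (difference of NP-40 vs SDS log2 ratios) is given: synchronized HeLa Kyoto cells (double thymidine block for G1/S, nocodazole release for mitosis), protein amounts in NP-40 versus SDS lysates quantified by mass spectrometry, three biological replicates.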
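Wherever solubility in G1/S (NP-40 vs SDS abundance) is given: HeLa Kyoto cells arrested at G1/S by double thymidine block, proteins quantified by TMT10plex mass spectrometry in mild NP-40 versus SDS extracts, three biological replicates.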
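Wherever thermal stability score vs G1/S (z-score of summed log2 fold changes over temperatures) is given: synchronized HeLa Kyoto cells, proteins quantified by TMT10plex mass spectrometry, three biological replicates, mitosis taken 0.5 h after nocodazole release, G1/S directly after double thymidine block.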

| Sequence | solubility in G1/S (log2) (HeLa Kyoto [1]) | melting temperature (HeLa Kyoto [2]; cell cycle stage: G1/S) [°C] | melting temperature (HeLa Kyoto [2]; cell cycle stage: mitosis) [°C] | solubility change mitosis (log2) (HeLa Kyoto [3]) | thermal stability score (HeLa Kyoto [4]; [5]) | thermal stability score (HeLa Kyoto [4]; cell cycle stage: mitosis) |
| --- | --- | --- | --- | --- | --- | --- |
| MSTADALDDENTFKILVATDIHLGFMEKDAVRGNDTFVTLDEILRLAQENEVDFILLGGDLFHENKPSRKTLHTCLELLRKYCMGDRPVQFEILSDQSVNFGFSKFPWVNYQDGNLNISIPVFSIHGNHDDPTGADALCALDILSCAGFVNHFGRSMSVEKIDISPVLLQKGSTKIALYGLGSIPDERLYRMFVNKKVTMLRPKEDENSWFNLFVIHQNRSKHGSTNFIPEQFLDDFIDLVIWGHEHECKIAPTKNEQQLFYISQPGSSVVTSLSPGEAVKKHVGLLRIKGRKMNMHKIPLHTVRQFFMEDIVLANHPDIFNPDNPKVTQAIQSFCLEKIEEMLENAERERLGNSHQPEKPLVRLRVDYSGGFEPFSVLRFSQKFVDRVANPKDIIHFFRHREQKEKTGEEINFGKLITKPSEGTTLRVEDLVKQYFQTAEKNVQLSLLTERGMGEAVQEFVDKEEKDAIEELVKYQLEKTQRFLKERHIDALEDKIDEEVRRFRETRQKNTNEEDDEVREAMTRARALRSQSEESASAFSADDLMSIDLAEQMANDSDDSISAATNKGRGRGRGRRGGRGQNSASRGGSQRGRADTGLETSTRSRNSKTAVSASRNMSIIDAFKSTRQQPSRNVTTKNYSEVIEVDESDVEEDIFPTTSKTDQRWSSTSSSKIMSQSQVSKGVDFESSEDDDDDPFMNTSSLRRNRR [MRE11A] | -0.0431 | 51.6 | 51.2 | -0.164 | -0.294 | -0.527 |
| MPAVSKGDGMRGLAVFISDIRNCKSKEAEIKRINKELANIRSKFKGDKALDGYSKKKYVCKLLFIFLLGHDIDFGHMEAVNLLSSNKYTEKQIGYLFISVLVNSNSELIRLINNAIKNDLASRNPTFMCLALHCIANVGSREMGEAFAADIPRILVAGDSMDSVKQSAALCLLRLYKASPDLVPMGEWTARVVHLLNDQHMGVVTAAVSLITCLCKKNPDDFKTCVSLAVSRLSRIVSSASTDLQDYTYYFVPAPWLSVKLLRLLQCYPPPEDAAVKGRLVECLETVLNKAQEPPKSKKVQHSNAKNAILFETISLIIHYDSEPNLLVRACNQLGQFLQHRETNLRYLALESMCTLASSEFSHEAVKTHIDTVINALKTERDVSVRQRAADLLYAMCDRSNAKQIVSEMLRYLETADYAIREEIVLKVAILAEKYAVDYSWYVDTILNLIRIAGDYVSEEVWYRVLQIVTNRDDVQGYAAKTVFEALQAPACHENMVKVGGYILGEFGNLIAGDPRSSPPVQFSLLHSKFHLCSVATRALLLSTYIKFINLFPETKATIQGVLRAGSQLRNADVELQQRAVEYLTLSSVASTDVLATVLEEMPPFPERESSILAKLKRKKGPGAGSALDDGRRDPSSNDINGGMEPTPSTVSTPSPSADLLGLRAAPPPAAPPASAGAGNLLVDVFDGPAAQPSLGPTPEEAFLSELEPPAPESPMALLADPAPAADPGPEDIGPPIPEADELLNKFVCKNNGVLFENQLLQIGVKSEFRQNLGRMYLFYGNKTSVQFQNFSPTVVHPGDLQTQLAVQTKRVAAQVDGGAQVQQVLNIECLRDFLTPPLLSVRFRYGGAPQALTLKLPVTINKFFQPTEMAAQDFFQRWKQLSLPQQEAQKIFKANHPMDAEVTKAKLLGFGSALLDNVDPNPENFVGAGIIQTKALQVGCLLRLEPNAQAQMYRLTLRTSKEPVSRHLCELLAQQF [AP2A1] | -0.0177 | 52 | 51.9 | -0.103 | 0.878 | 2.23 |
| MAEEEVAKLEKHLMLLRQEYVKLQKKLAETEKRCALLAAQANKESSSESFISRLLAIVADLYEQEQYSDLKIKVGDRHISAHKFVLAARSDSWSLANLSSTKELDLSDANPEVTMTMLRWIYTDELEFREDDVFLTELMKLANRFQLQLLRERCEKGVMSLVNVRNCIRFYQTAEELNASTLMNYCAEIIASHWDDLRKEDFSSMSAQLLYKMIKSKTEYPLHKAIKVEREDVVFLYLIEMDSQLPGKLNEADHNGDLALDLALSRRLESIATTLVSHKADVDMVDKSGWSLLHKGIQRGDLFAATFLIKNGAFVNAATLGAQETPLHLVALYSSKKHSADVMSEMAQIAEALLQAGANPNMQDSKGRTPLHVSIMAGNEYVFSQLLQCKQLDLELKDHEGSTALWLAVQHITVSSDQSVNPFEDVPVVNGTSFDENSFAARLIQRGSHTDAPDTATGNCLLQRAAGAGNEAAALFLATNGAHVNHRNKWGETPLHTACRHGLANLTAELLQQGANPNLQTEEALPLPKEAASLTSLADSVHLQTPLHMAIAYNHPDVVSVILEQKANALHATNNLQIIPDFSLKDSRDQTVLGLALWTGMHTIAAQLLGSGAAINDTMSDGQTLLHMAIQRQDSKSALFLLEHQADINVRTQDGETALQLAIRNQLPLVVDAICTRGADMSVPDEKGNPPLWLALANNLEDIASTLVRHGCDATCWGPGPGGCLQTLLHRAIDENNEPTACFLIRSGCDVNSPRQPGANGEGEEEARDGQTPLHLAASWGLEETVQCLLEFGANVNAQDAEGRTPIHVAISSQHGVIIQLLVSHPDIHLNVRDRQGLTPFACAMTFKNNKSAEAILKRESGAAEQVDNKGRNFLHVAVQNSDIESVLFLISVHANVNSRVQDASKLTPLHLAVQAGSEIIVRNLLLAGAKVNELTKHRQTALHLAAQQDLPTICSVLLENGVDFAAVDENGNNALHLAVMHGRLNNIRVLLTECTVDAEAFNLRGQSPLHILGQYGKENAAAIFDLFLECMPGYPLDKPDADGSTVLLLAYMKGNANLCRAIVRSGARLGVNNNQGVNIFNYQVATKQLLFRLLDMLSKEPPWCDGSYCYECTARFGVTTRKHHCRHCGRLLCHKCSTKEIPIIKFDLNKPVRVCNICFDVLTLGGVS [ANKFY1] | -0.0647 | 48.8 | 49.3 | -0.175 | 0.358 | 1.34 |
| MALKQEMAKSLLKTASLSGRTKLLHQTGLSLYSTSHGFYEEEVKKTLQQFPGGSIDLQKEDNGIGILTLNNPSRMNAFSGVMMLQLLEKVIELENWTEGKGLIVRGAKNTFSSGSDLNAVKSLGTPEDGMAVCMFMQNTLTRFMRLPLISVALVQGWALGGGAEFTTACDFRLMTPESKIRFVHKEMGIIPSWGGTTRLVEIIGSRQALKVLSGALKLDSKNALNIGMVEEVLQSSDETKSLEEAQEWLKQFIQGPPEVIRALKKSVCSGRELYLEEALQNERDLLGTVWGGPANLEAIAKKGKFNK [ECHDC1] | 0.284 | 56.5 | 58.1 | -0.0468 | -1.01 | -1.18 |
| MQNSHMDEYRNSSNGSTGNSSEVVVEHPTDFSTEIMNVTEMEQSPDDSPNVNASTEETEMASAVDLPVTLTETEANFPPEYEKFWKTVENNPQDFTGWVYLLQYVEQENHLMAARKAFDRFFIHYPYCYGYWKKYADLEKRHDNIKPSDEVYRRGLQAIPLSVDLWIHYINFLKETLDPGDPETNNTIRGTFEHAVLAAGTDFRSDRLWEMYINWENEQGNLREVTAIYDRILGIPTQLYSHHFQRFKEHVQNNLPRDLLTGEQFIQLRRELASVNGHSGDDGPPGDDLPSGIEDITDPAKLITEIENMRHRIIEIHQEMFNYNEHEVSKRWTFEEGIKRPYFHVKPLEKAQLKNWKEYLEFEIENGTHERVVVLFERCVISCALYEEFWIKYAKYMENHSIEGVRHVFSRACTIHLPKKPMVHMLWAAFEEQQGNINEARNILKTFEECVLGLAMVRLRRVSLERRHGNLEEAEHLLQDAIKNAKSNNESSFYAVKLARHLFKIQKNLPKSRKVLLEAIERDKENTKLYLNLLEMEYSGDLKQNEENILNCFDKAVHGSLPIKMRITFSQRKVEFLEDFGSDVNKLLNAYDEHQTLLKEQDSLKRKAENGSEEPEEKKAHTEDTTSSSTQMIDGDLQANQAVYNYSAWYQYNYQNPWNYGQYYPPPPT [PRPF39] | 0.0352 | 47.2 | 50.4 | -0.157 | 1.54 | 2.13 |
| MGAPLLSPGWGAGAAGRRWWMLLAPLLPALLLVRPAGALVEGLYCGTRDCYEVLGVSRSAGKAEIARAYRQLARRYHPDRYRPQPGDEGPGRTPQSAEEAFLLVATAYETLKDEETRKDYDYMLDHPEEYYSHYYHYYSRRLAPKVDVRVVILVSVCAISVFQFFSWWNSYNKAISYLATVPKYRIQATEIAKQQGLLKKAKEKGKNKKSKEEIRDEEENIIKNIIKSKIDIKGGYQKPQICDLLLFQIILAPFHLCSYIVWYCRWIYNFNIKGKEYGEEERLYIIRKSMKMSKSQFDSLEDHQKETFLKRELWIKENYEVYKQEQEEELKKKLANDPRWKRYRRWMKNEGPGRLTFVDD [DNAJC25] | -0.101 | 50.5 | 50.2 | 0.00727 | 0.0789 | -0.224 |
